Assays:
[1] = molecular target: TGBp1-cYFP (cowpea mild mottle virus triple gene block protein 1 fused to the C-terminal half of YFP) (cowpea mild mottle virus (isolate CPMMV_AH_SZ)); experiment: split reporter (BiFC, NanoBiT); BiFC of the TGBp1 and TGBp3 YFP halves with TGBp2-Flag co-expressed in N. benthamiana leaves; confocal microscopy 48 h after infiltration; mean intensity of whole images by ImageJ
[2] = molecular target: TGBp1-cYFP (cowpea mild mottle virus triple gene block protein 1 fused to the C-terminal half of YFP) (cowpea mild mottle virus (isolate CPMMV_AH_SZ)); experiment: split reporter (BiFC, NanoBiT); BiFC: nYFP and cYFP fusions co-expressed by agroinfiltration in N. benthamiana leaves; YFP signal by confocal microscopy 48 h after infiltration; mean intensity of whole images by ImageJ

“TGBp3-nYFP (cowpea mild mottle virus triple gene block protein 3 fused to the N-terminal half of YFP) (natural protein)” gave a mean fluorescence intensity of the BiFC signal, with TGBp2-Flag co-expressed [1] of 95.9 and a mean fluorescence intensity of the BiFC signal, without TGBp2-Flag [2] of 75.7.

Reference: article PMC9051516
